Results on 1 variant are retold here after IntAct's records for PubMed 9653157.

First the molecules themselves.
B1: Cell division control protein 18 (Schizosaccharomyces pombe (strain ATCC 38366 / 972)), P41411 (parent)
chain: MCETPIGCHTPRRCNRFIDSAALIDCTNKTNQREHSPSFSIEIPTTPSRKRTLASSHFQTPTKRIKYELGELQEEKTDLYPNFPAQLKENKKPKLPTTPQTPKTPKRTIQIVTPKSLNRTCNPVPFATRLLQSTPHRQLFPPTPSTPSTPSYNSTAKLSLRKSYRSAGVVGRENEKSIVESFFRQHLDANAGGALYVSGAPGTGKTVLLHNVLDHVVSDYPKVNVCYINCMTINEPKAIFEKIHSKIVKEEILENEDHHINFQCELESHFTQSANELYNPVIIVLDEMDHLIAREQQVLYTLFEWPSRPTSRLILVGIANALDMTDRFLPRLRTKHITPKLLSFTPYTAQEISTIIKARLKTAATTSEKNNPFTPIKSISEVSDDSINVVSQHADETPFIHPAAIELCARKVAASSGDLRKALDICRHAIELAEREWKAQHDNTLSSVDIPRASIAHVVRATSAMSQSASARLKNLGLQQKAILCTLVVCEKTSLSVADVFEKYSSLCLRDRLIYPLTSSEFCDVANSLETLAIIRLRTKQRNGKPQDRIISLLVPEMDVITAVGDIGTLKRFFDRR
partner: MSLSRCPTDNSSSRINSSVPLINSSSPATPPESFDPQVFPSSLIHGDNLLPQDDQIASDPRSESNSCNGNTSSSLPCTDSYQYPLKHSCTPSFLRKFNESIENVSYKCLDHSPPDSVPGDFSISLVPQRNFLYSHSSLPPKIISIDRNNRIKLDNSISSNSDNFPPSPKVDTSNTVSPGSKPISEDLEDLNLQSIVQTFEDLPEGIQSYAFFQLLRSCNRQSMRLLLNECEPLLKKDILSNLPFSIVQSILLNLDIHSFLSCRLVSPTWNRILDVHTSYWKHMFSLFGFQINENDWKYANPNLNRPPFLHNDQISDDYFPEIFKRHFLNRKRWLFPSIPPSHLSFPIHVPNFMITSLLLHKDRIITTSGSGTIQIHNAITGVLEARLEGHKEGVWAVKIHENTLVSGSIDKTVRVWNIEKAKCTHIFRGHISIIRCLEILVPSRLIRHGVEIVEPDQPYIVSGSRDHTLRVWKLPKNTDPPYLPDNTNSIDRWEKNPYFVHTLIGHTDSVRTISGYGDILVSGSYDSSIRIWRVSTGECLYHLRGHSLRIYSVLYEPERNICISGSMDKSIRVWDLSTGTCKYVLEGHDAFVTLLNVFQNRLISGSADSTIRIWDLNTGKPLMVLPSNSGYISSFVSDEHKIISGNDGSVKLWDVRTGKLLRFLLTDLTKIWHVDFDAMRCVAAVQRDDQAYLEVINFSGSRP

The variants in the experiment derive from B1. The note with it: with pop2_schpo pop2, O14170.
Turning to T4A;T10A;T46A;T60A;T101A;T104A, the “effect of a mutation on the interaction” value is “disrupting interaction”.
